Data from PMC6613617, “Human DNA polymerase delta requires an iron–sulfur cluster for high-fidelity DNA synthesis”.

Columns and labels:
[1] = target: T1, POLD1-CS;POLD2;POLD3;POLD4;PCNA (Homo sapiens;Homo sapiens;Homo …, UniProt P28340;P49005;Q15054;Q9HCU8;P12004 1-1107;1-469;1-466;1-107;1-261, C1076S||||); assay: EMSA; copurified with PCNA; defect alleviated; EMSA: 20 mM Tris-HCl pH 8.0, 20 mM KCl, 1 mM EDTA, 0.5 mM TCEP, 20 nM probe, 10-80 nM Pol delta, 25 C 30 min; 7% native PAGE, 0.5x TBE; conditions: protein: recombinant;recombinant;recombinant;recombinant;recombinant; copies: 1;1;1;1;3; label: 5'-fluorescein (FAM) on strand 1; blunt; one unpaired A in strand 2 as printed
[2] = target: T2, POLD1-HW;POLD2;POLD3;POLD4 (Homo sapiens;Homo sapiens;Homo …, UniProt P28340;P49005;Q15054;Q9HCU8 1-1107;1-469;1-466;1-107, H1066W|||); assay: EMSA; without PCNA; not impaired; EMSA: 20 mM Tris-HCl pH 8.0, 20 mM KCl, 1 mM EDTA, 0.5 mM TCEP, 20 nM probe, 10-80 nM Pol delta, 25 C 30 min; 7% native PAGE, 0.5x TBE; conditions: protein: recombinant;recombinant;recombinant;recombinant; copies: 1;1;1;1; label: 5'-fluorescein (FAM) on strand 1; blunt; one unpaired A in strand 2 as printed
T2 sequence (P28340 whole entry H1066W, chain 1 of 4): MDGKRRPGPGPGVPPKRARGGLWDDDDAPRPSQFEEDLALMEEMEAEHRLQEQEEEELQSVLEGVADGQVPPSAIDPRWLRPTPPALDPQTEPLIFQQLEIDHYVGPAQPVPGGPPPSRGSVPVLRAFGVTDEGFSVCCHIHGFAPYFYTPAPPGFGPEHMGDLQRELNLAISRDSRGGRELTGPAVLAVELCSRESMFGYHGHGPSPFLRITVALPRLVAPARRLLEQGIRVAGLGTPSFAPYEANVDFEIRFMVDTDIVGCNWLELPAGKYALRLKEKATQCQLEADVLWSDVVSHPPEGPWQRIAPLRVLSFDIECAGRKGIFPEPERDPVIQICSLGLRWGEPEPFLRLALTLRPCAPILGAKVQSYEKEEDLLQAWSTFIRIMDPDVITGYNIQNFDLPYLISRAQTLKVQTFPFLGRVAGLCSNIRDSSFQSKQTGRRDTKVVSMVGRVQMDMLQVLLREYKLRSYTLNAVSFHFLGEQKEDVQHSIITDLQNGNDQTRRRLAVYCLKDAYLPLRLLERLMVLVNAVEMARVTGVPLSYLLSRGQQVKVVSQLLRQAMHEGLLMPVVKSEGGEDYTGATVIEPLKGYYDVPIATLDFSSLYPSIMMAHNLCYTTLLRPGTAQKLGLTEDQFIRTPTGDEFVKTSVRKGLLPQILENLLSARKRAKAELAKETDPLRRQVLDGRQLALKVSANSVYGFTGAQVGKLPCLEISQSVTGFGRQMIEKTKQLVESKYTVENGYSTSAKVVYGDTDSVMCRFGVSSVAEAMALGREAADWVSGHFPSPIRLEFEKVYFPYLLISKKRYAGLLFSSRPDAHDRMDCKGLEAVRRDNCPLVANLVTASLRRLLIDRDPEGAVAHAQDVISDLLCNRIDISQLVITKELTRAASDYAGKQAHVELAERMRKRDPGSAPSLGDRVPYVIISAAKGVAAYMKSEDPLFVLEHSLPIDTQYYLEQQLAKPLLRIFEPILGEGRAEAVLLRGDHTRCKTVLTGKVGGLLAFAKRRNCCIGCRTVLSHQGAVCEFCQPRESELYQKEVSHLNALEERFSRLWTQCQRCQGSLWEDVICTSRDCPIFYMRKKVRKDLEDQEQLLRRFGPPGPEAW
T2 sequence (P49005 whole entry, chain 2 of 4): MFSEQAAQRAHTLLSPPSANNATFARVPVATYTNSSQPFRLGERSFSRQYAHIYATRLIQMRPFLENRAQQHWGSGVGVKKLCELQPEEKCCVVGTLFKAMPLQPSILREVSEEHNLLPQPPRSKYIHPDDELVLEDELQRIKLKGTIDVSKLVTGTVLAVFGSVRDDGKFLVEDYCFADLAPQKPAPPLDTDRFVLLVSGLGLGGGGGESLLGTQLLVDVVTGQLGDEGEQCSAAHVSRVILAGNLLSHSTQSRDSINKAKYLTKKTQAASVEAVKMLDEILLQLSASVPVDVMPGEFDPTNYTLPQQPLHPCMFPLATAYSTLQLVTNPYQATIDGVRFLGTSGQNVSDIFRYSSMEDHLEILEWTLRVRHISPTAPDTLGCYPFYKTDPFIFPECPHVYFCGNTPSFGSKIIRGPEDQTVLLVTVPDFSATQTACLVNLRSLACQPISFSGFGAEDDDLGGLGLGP
T2 sequence (Q15054 whole entry, chain 3 of 4): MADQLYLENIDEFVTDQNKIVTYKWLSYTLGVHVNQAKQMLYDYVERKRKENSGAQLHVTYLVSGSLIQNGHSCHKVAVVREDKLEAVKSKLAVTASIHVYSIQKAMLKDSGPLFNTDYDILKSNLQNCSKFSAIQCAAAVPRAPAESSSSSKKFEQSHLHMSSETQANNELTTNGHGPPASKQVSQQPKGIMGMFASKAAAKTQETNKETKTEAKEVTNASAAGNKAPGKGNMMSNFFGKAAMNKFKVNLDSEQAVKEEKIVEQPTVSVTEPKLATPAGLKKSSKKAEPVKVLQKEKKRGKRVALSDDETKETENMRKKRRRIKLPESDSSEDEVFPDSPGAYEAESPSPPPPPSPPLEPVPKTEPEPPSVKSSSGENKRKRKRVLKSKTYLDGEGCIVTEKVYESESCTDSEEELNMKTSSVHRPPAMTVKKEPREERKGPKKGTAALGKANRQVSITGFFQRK
T2 sequence (Q9HCU8 whole entry, chain 4 of 4): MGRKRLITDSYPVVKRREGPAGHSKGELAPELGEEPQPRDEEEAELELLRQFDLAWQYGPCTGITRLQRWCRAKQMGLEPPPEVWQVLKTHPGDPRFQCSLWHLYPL

[3] = target: T3, POLD1-HY;POLD2;POLD3;POLD4 (Homo sapiens;Homo sapiens;Homo …, UniProt P28340;P49005;Q15054;Q9HCU8 1-1107;1-469;1-466;1-107, H1066Y|||); assay: as above; conditions: protein: recombinant;recombinant;recombinant;recombinant; copies: 1;1;1;1; label: 5'-fluorescein (FAM) on strand 1; blunt; one unpaired A in strand 2 as printed
T3 sequence (P28340 whole entry H1066Y, chain 1 of 4): as the sequence (P28340 whole entry H1066W, chain 1 of 4) above, with W1066Y counted along it
T3 sequence (P49005 whole entry, chain 2 of 4): as the sequence (P49005 whole entry, chain 2 of 4) above
T3 sequence (Q15054 whole entry, chain 3 of 4): as the sequence (Q15054 whole entry, chain 3 of 4) above
T3 sequence (Q9HCU8 whole entry, chain 4 of 4): as the sequence (Q9HCU8 whole entry, chain 4 of 4) above

[4] = target: POLD1-HY;POLD2;POLD3;POLD4;PCNA (Homo sapiens;Homo sapiens;Homo …, UniProt P28340;P49005;Q15054;Q9HCU8;P12004 1-1107;1-469;1-466;1-107;1-261, H1066Y||||); assay: EMSA; copurified with PCNA; EMSA: 20 mM Tris-HCl pH 8.0, 20 mM KCl, 1 mM EDTA, 0.5 mM TCEP, 20 nM probe, 10-80 nM Pol delta, 25 C 30 min; 7% native PAGE, 0.5x TBE; conditions: protein: recombinant;recombinant;recombinant;recombinant;recombinant; copies: 1;1;1;1;3; label: 5'-fluorescein (FAM) on strand 1; 5' overhang 16 nt on template strand 2; one unpaired A in strand 2 as printed
[5] = target: POLD1 WT (catalytic subunit of Pol delta);POLD2;POLD3;POLD4;PCNA (Homo sapiens;Homo sapiens;Homo …, UniProt P28340;P49005;Q15054;Q9HCU8;P12004 1-1107;1-469;1-466;1-107;1-261, ||||); assay: as above; conditions: protein: recombinant;recombinant;recombinant;recombinant;recombinant; copies: 1;1;1;1;3; label: 5'-fluorescein (FAM) on strand 1; 5' overhang 16 nt on template strand 2; one unpaired A in strand 2 as printed
[6] = target: POLD1-HW;POLD2;POLD3;POLD4;PCNA (Homo sapiens;Homo sapiens;Homo …, UniProt P28340;P49005;Q15054;Q9HCU8;P12004 1-1107;1-469;1-466;1-107;1-261, H1066W||||); assay: as above; conditions: protein: recombinant;recombinant;recombinant;recombinant;recombinant; copies: 1;1;1;1;3; label: 5'-fluorescein (FAM) on strand 1; 5' overhang 16 nt on template strand 2; one unpaired A in strand 2 as printed
[7] = target: T1, POLD1-CS;POLD2;POLD3;POLD4;PCNA; assay: EMSA; copurified with PCNA; less second (super-shifted) band than WT; EMSA: 20 mM Tris-HCl pH 8.0, 20 mM KCl, 1 mM EDTA, 0.5 mM TCEP, 20 nM probe, 10-80 nM Pol delta, 25 C 30 min; 7% native PAGE, 0.5x TBE; conditions: protein: recombinant;recombinant;recombinant;recombinant;recombinant; copies: 1;1;1;1;3; label: 5'-fluorescein (FAM) on strand 1; 5' overhang 16 nt on template strand 2; one unpaired A in strand 2 as printed
[8] = target: T4, POLD1-CS;POLD2;POLD3;POLD4 (Homo sapiens;Homo sapiens;Homo …, UniProt P28340;P49005;Q15054;Q9HCU8 1-1107;1-469;1-466;1-107, C1076S|||); assay: EMSA; without PCNA; less second (super-shifted) band than WT; EMSA: 20 mM Tris-HCl pH 8.0, 20 mM KCl, 1 mM EDTA, 0.5 mM TCEP, 20 nM probe, 10-80 nM Pol delta, 25 C 30 min; 7% native PAGE, 0.5x TBE; conditions: protein: recombinant;recombinant;recombinant;recombinant; copies: 1;1;1;1; label: 5'-fluorescein (FAM) on strand 1; 5' overhang 16 nt on template strand 2; one unpaired A in strand 2 as printed
T4 sequence (P28340 whole entry C1076S, chain 1 of 4): as the sequence (P28340 whole entry H1066W, chain 1 of 4) above, with W1066H, C1076S counted along it
T4 sequence (P49005 whole entry, chain 2 of 4): as the sequence (P49005 whole entry, chain 2 of 4) above
T4 sequence (Q15054 whole entry, chain 3 of 4): as the sequence (Q15054 whole entry, chain 3 of 4) above
T4 sequence (Q9HCU8 whole entry, chain 4 of 4): as the sequence (Q9HCU8 whole entry, chain 4 of 4) above

[9] = target: T2, POLD1-HW;POLD2;POLD3;POLD4; assay: EMSA; without PCNA; EMSA: 20 mM Tris-HCl pH 8.0, 20 mM KCl, 1 mM EDTA, 0.5 mM TCEP, 20 nM probe, 10-80 nM Pol delta, 25 C 30 min; 7% native PAGE, 0.5x TBE; conditions: protein: recombinant;recombinant;recombinant;recombinant; copies: 1;1;1;1; label: 5'-fluorescein (FAM) on strand 1; 5' overhang 16 nt on template strand 2; one unpaired A in strand 2 as printed
[10] = target: POLD1 WT (catalytic subunit of Pol delta);POLD2;POLD3;POLD4 (Homo sapiens;Homo sapiens;Homo …, UniProt P28340;P49005;Q15054;Q9HCU8 1-1107;1-469;1-466;1-107, |||); assay: as above; conditions: protein: recombinant;recombinant;recombinant;recombinant; copies: 1;1;1;1; label: 5'-fluorescein (FAM) on strand 1; 5' overhang 16 nt on template strand 2; one unpaired A in strand 2 as printed
POLD1 WT (catalytic subunit of Pol delta);POLD2;POLD3;POLD4, sequence (P28340 whole entry, stated change not applied, chain 1 of 4): as the sequence (P28340 whole entry H1066W, chain 1 of 4) above, with W1066H counted along it
POLD1 WT (catalytic subunit of Pol delta);POLD2;POLD3;POLD4, sequence (P49005 whole entry, stated change not applied, chain 2 of 4): as the sequence (P49005 whole entry, chain 2 of 4) above
POLD1 WT (catalytic subunit of Pol delta);POLD2;POLD3;POLD4, sequence (Q15054 whole entry, stated change not applied, chain 3 of 4): as the sequence (Q15054 whole entry, chain 3 of 4) above
POLD1 WT (catalytic subunit of Pol delta);POLD2;POLD3;POLD4, sequence (Q9HCU8 whole entry, stated change not applied, chain 4 of 4): as the sequence (Q9HCU8 whole entry, chain 4 of 4) above

[11] = target: T3, POLD1-HY;POLD2;POLD3;POLD4; assay: as above; conditions: protein: recombinant;recombinant;recombinant;recombinant; copies: 1;1;1;1; label: 5'-fluorescein (FAM) on strand 1; 5' overhang 16 nt on template strand 2; one unpaired A in strand 2 as printed
[12] = target: T1, POLD1-CS;POLD2;POLD3;POLD4;PCNA; assay: EMSA; copurified with PCNA; no defect; EMSA: 20 mM Tris-HCl pH 8.0, 20 mM KCl, 1 mM EDTA, 0.5 mM TCEP, 20 nM probe, 10-80 nM Pol delta, 25 C 30 min; 7% native PAGE, 0.5x TBE; conditions: protein: recombinant;recombinant;recombinant;recombinant;recombinant; copies: 1;1;1;1;3; label: 5'-fluorescein (FAM); single strand
[13] = target: T4, POLD1-CS;POLD2;POLD3;POLD4; assay: EMSA; without PCNA; no defect; EMSA: 20 mM Tris-HCl pH 8.0, 20 mM KCl, 1 mM EDTA, 0.5 mM TCEP, 20 nM probe, 10-80 nM Pol delta, 25 C 30 min; 7% native PAGE, 0.5x TBE; conditions: protein: recombinant;recombinant;recombinant;recombinant; copies: 1;1;1;1; label: 5'-fluorescein (FAM); single strand

Measured: binding result

B1: dsDNA probe (Fig 3C,D) (dsDNA)
DNA 1: GTTTCTTCAATCTTCATCATACAGGTCAG
DNA 2: CTGACCTGTATGATGAAGATTGAAAGAAAC
binds: [1] | [2] | [3]

B2: primer-template (Fig 3A,B) (mixed)
DNA 1: GTTTCTTCAATCTTCATCATACAGGTCAG
DNA 2: CTCGTCAGCATCTCGTCTGACCTGTATGATGAAGATTGAAAGAAAC
not listed: [1] | [2] | [3] | [12] | [13]
binds: all other assays above

GTTTCTTCAATCTTCATCATACAGGTCAG (ssDNA) [ssDNA probe (Fig 3E,F)]
binds: [12] | [13]
